# Reference: patent US20200087373A1 (UNIVERSITY OF COPENHAGEN, published 2020)
# Several values for one entry are separate records, joined by “and”; a condition that tells them apart may be missing. Equal entries are not always repeated. Ends that are not written are not given here. * marks the point of attachment. C16 diacid = O=C(O)CCCCCCCCCCCCCCC(=O)*
# T1: human GIP receptor (human, UniProt P48546 22-466)
# T1 sequence (looked up): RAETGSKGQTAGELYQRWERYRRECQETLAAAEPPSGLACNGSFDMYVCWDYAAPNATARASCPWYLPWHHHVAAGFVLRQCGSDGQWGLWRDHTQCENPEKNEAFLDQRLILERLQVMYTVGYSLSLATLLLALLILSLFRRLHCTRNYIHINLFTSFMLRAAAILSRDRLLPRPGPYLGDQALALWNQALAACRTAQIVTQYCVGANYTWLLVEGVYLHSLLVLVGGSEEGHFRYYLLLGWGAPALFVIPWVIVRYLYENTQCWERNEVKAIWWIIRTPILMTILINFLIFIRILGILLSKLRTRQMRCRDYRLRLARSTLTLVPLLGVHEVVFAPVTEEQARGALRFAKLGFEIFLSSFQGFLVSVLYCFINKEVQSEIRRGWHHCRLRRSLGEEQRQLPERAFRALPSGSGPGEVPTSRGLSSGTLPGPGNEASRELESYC
# T2: human GIP receptor (human, UniProt P48546 22-466)
# T2 sequence (looked up): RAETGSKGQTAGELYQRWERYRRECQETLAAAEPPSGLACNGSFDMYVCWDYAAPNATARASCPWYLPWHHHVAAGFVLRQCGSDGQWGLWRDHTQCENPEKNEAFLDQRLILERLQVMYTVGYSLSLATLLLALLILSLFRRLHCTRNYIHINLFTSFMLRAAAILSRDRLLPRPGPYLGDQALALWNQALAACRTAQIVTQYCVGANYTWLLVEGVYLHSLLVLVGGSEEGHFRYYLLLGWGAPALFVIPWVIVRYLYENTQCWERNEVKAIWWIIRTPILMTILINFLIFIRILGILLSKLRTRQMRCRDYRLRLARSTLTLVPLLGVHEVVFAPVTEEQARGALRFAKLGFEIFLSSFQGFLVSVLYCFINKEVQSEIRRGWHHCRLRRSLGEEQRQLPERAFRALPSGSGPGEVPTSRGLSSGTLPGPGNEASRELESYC
# Experiments:
# human GIP receptor [1] = biological target: T1, human GIP receptor; assay: cell-based or functional assay
# human GIP receptor [2] = biological target: T1, human GIP receptor; assay: 125I-hGIP(1-42) competition binding, COS-7 cells expressing human GIPR, with 2% HSA;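 further: nonspecific signal taken as radioligand bound to untransfected cells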
# Description: (§1) After incubation, the cells were washed twice in ice-cold binding buffer (+/−2% HSA) and lysed using 200 mM NaOH with 1% SDS for 30 min. Nonspecific binding was determined as the binding of radioactive ligand to untransfected cells.
# human GIP receptor [3] = biological target: T1, human GIP receptor; assay: 125I-hGIP(1-42) competition binding, COS-7 cells expressing human GIPR, without HSA;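 further: nonspecific binding defined as radioligand bound to cells lacking the transfected receptor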
# Description: as §1
# human GIP receptor [4] = biological target: T1, human GIP receptor; assay: ratio of Ki with 2% HSA to Ki without HSA, 125I-hGIP competition binding on hGIPR COS-7 cells;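 further: nonspecific binding was defined as radioligand signal on cells lacking the receptor transfection, with cell lysates measured after washes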
# Description: as §1
# human GIP receptor [5] = biological target: T2, human GIP receptor; assay: cell-based or functional assay; remark: listed apart in the source
# human GIP receptor [6] = biological target: T2, human GIP receptor; assay: 125I-hGIP competition binding, COS-7/hGIPR, 2% HSA;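 further: nonspecific binding defined as radioligand binding to untransfected cells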
# Description: as §1
# human GIP receptor [7] = biological target: T2, human GIP receptor; assay: 125I-hGIP competition binding, COS-7/hGIPR, 0.1% casein;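 further: nonspecific binding defined as radioligand binding measured on untransfected cells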
# Description: as §1
# human GIP receptor [8] = biological target: T2, human GIP receptor; assay: 125I-hGIP competition binding, COS-7 cells expressing hGIPR;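 further: nonspecific binding taken as radioligand bound by untransfected cells, binding buffer with or without 2% HSA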
# Description: as §1
# human GIP receptor [9] = biological target: T2, human GIP receptor; assay: IC50 with 2% HSA over IC50 with 0.1% casein, 125I-hGIP competition, COS-7/hGIPR
# Description: as §1
Binder,cAMP accumulation IC50 (human GIP receptor [1]) [nM],cAMP accumulation logIC50 (human GIP receptor [1]),Ki (human GIP receptor [2]) [nM],Ki (human GIP receptor [3]) [nM],Fold (Ki + HSA / Ki - HSA) (human GIP receptor [4]) [fold],cAMP accumulation Fold (fold change from GIP(5-30)NH2) (human GIP receptor [1]) [fold],"cAMP agonism, Emax (human GIP receptor [5])",cAMP antagonism (human GIP receptor [5]) [nM],"cAMP antagonism, log (human GIP receptor [5]) [log M]",IC50 (human GIP receptor [6]) [nM],logIC50 (human GIP receptor [6]) [log M],IC50 (human GIP receptor [7]) [nM],logIC50 (human GIP receptor [7]) [log M],IC50 (human GIP receptor [8]) [nM],log IC50 (human GIP receptor [8]),Fold change HSA (2%)/Casein (0.1%) (human GIP receptor [9]) [fold],cAMP agonism (human GIP receptor [5]) [nM],"cAMP agonism, EC50 (log) (human GIP receptor [5])"
TFISDYSIAMDKIHQQDFVNWLLAQK-NH2 (Not lipidated) [hGIP(5-30)NH2],27.5,-7.56 log(M),6.7,6.3,1,–,–,–,–,–,–,–,–,–,–,–,–,–
TFK(C16 diacid)SDYSIAMDKIHQQDFVNWLLAQK-NH2 (N-terminus assumed; SMILES CC[C@H](C)[C@H](NC(=O)[C@H](CO)NC(=O)[C@H](Cc1ccc(O)cc1)NC(=O)[C@H](CC(=O)O)NC(=O)[C@H](CO)NC(=O)[C@H](CCCCNC(=O)CCCCCCCCCCCCCCC(=O)O)NC(=O)[C@H](Cc1ccccc1)NC(=O)[C@@H](N)[C@@H](C)O)C(=O)N[C@@H](C)C(=O)N[C@@H](CCSC)C(=O)N[C@@H](CC(=O)O)C(=O)N[C@@H](CCCCN)C(=O)N[C@H](C(=O)N[C@@H](Cc1c[nH]cn1)C(=O)N[C@@H](CCC(N)=O)C(=O)N[C@@H](CCC(N)=O)C(=O)N[C@@H](CC(=O)O)C(=O)N[C@@H](Cc1ccccc1)C(=O)N[C@H](C(=O)N[C@@H](CC(N)=O)C(=O)N[C@@H](Cc1c[nH]c2ccccc12)C(=O)N[C@@H](CC(C)C)C(=O)N[C@@H](CC(C)C)C(=O)N[C@@H](C)C(=O)N[C@@H](CCC(N)=O)C(=O)N[C@@H](CCCCN)C(N)=O)C(C)C)[C@@H](C)CC) [AT169 [hGIP(5-30)NH2[I7K]-C16diacid/7]],81.3,-7.09 log(M),126,26.5,4.8,3,–,–,–,–,–,–,–,–,–,–,–,–
"TKISDYSIAMDKIHQQDFVNWLLAQK (C16-diacid (1,16-hexadecanedioic acid) on Lys at position 6 in GIP numbering (residue 2 of the entry); C-terminal amide) [AT168 [hGIP(5-30)NH2[F6K]-C16diacid/6]]",148,-6.83 log(M),97.7,41.3,2.3,5.3,–,–,–,–,–,–,–,–,–,–,–,–
TFISDYSIAMDKIK(C16 diacid)QQDFVNWLLAQK-NH2 (N-terminus assumed; SMILES CC[C@H](C)[C@H](NC(=O)[C@H](CO)NC(=O)[C@H](Cc1ccc(O)cc1)NC(=O)[C@H](CC(=O)O)NC(=O)[C@H](CO)NC(=O)[C@@H](NC(=O)[C@H](Cc1ccccc1)NC(=O)[C@@H](N)[C@@H](C)O)[C@@H](C)CC)C(=O)N[C@@H](C)C(=O)N[C@@H](CCSC)C(=O)N[C@@H](CC(=O)O)C(=O)N[C@@H](CCCCN)C(=O)N[C@H](C(=O)N[C@@H](CCCCNC(=O)CCCCCCCCCCCCCCC(=O)O)C(=O)N[C@@H](CCC(N)=O)C(=O)N[C@@H](CCC(N)=O)C(=O)N[C@@H](CC(=O)O)C(=O)N[C@@H](Cc1ccccc1)C(=O)N[C@H](C(=O)N[C@@H](CC(N)=O)C(=O)N[C@@H](Cc1c[nH]c2ccccc12)C(=O)N[C@@H](CC(C)C)C(=O)N[C@@H](CC(C)C)C(=O)N[C@@H](C)C(=O)N[C@@H](CCC(N)=O)C(=O)N[C@@H](CCCCN)C(N)=O)C(C)C)[C@@H](C)CC) [AT156 [hGIP(5-30)NH2[H18K]-C16diacid/18]],24,-7.62 log(M),29,5,5.8,0.9,–,–,–,–,–,–,–,–,–,–,–,–
TFISDYSIAMDKIHQQDFVNWK(C16 diacid)LAQK-NH2 (N-terminus assumed; SMILES CC[C@H](C)[C@H](NC(=O)[C@H](CO)NC(=O)[C@H](Cc1ccc(O)cc1)NC(=O)[C@H](CC(=O)O)NC(=O)[C@H](CO)NC(=O)[C@@H](NC(=O)[C@H](Cc1ccccc1)NC(=O)[C@@H](N)[C@@H](C)O)[C@@H](C)CC)C(=O)N[C@@H](C)C(=O)N[C@@H](CCSC)C(=O)N[C@@H](CC(=O)O)C(=O)N[C@@H](CCCCN)C(=O)N[C@H](C(=O)N[C@@H](Cc1c[nH]cn1)C(=O)N[C@@H](CCC(N)=O)C(=O)N[C@@H](CCC(N)=O)C(=O)N[C@@H](CC(=O)O)C(=O)N[C@@H](Cc1ccccc1)C(=O)N[C@H](C(=O)N[C@@H](CC(N)=O)C(=O)N[C@@H](Cc1c[nH]c2ccccc12)C(=O)N[C@@H](CCCCNC(=O)CCCCCCCCCCCCCCC(=O)O)C(=O)N[C@@H](CC(C)C)C(=O)N[C@@H](C)C(=O)N[C@@H](CCC(N)=O)C(=O)N[C@@H](CCCCN)C(N)=O)C(C)C)[C@@H](C)CC) [AT186 [hGIP(5-30)NH2[L26K]-C16diacid/26]],–,–,–,–,–,–,0,79,-7.1,331,-6.5,87.1,-7.1,144,-6.8 log M and -6.84 log M,3.8,–,–
TFISDYSIAMDKIHQQDFVNWLK(C16 diacid)AQK-NH2 (N-terminus assumed; SMILES CC[C@H](C)[C@H](NC(=O)[C@H](CO)NC(=O)[C@H](Cc1ccc(O)cc1)NC(=O)[C@H](CC(=O)O)NC(=O)[C@H](CO)NC(=O)[C@@H](NC(=O)[C@H](Cc1ccccc1)NC(=O)[C@@H](N)[C@@H](C)O)[C@@H](C)CC)C(=O)N[C@@H](C)C(=O)N[C@@H](CCSC)C(=O)N[C@@H](CC(=O)O)C(=O)N[C@@H](CCCCN)C(=O)N[C@H](C(=O)N[C@@H](Cc1c[nH]cn1)C(=O)N[C@@H](CCC(N)=O)C(=O)N[C@@H](CCC(N)=O)C(=O)N[C@@H](CC(=O)O)C(=O)N[C@@H](Cc1ccccc1)C(=O)N[C@H](C(=O)N[C@@H](CC(N)=O)C(=O)N[C@@H](Cc1c[nH]c2ccccc12)C(=O)N[C@@H](CC(C)C)C(=O)N[C@@H](CCCCNC(=O)CCCCCCCCCCCCCCC(=O)O)C(=O)N[C@@H](C)C(=O)N[C@@H](CCC(N)=O)C(=O)N[C@@H](CCCCN)C(N)=O)C(C)C)[C@@H](C)CC) [AT187 [hGIP(5-30)NH2[L27K]-C16diacid/27]],–,–,–,–,–,–,25,2380,-5.6,676,-6.2,144,-6.8,26500,-4.6 log M and -4.58 log M,4.7,2380,-6 log M and -5.6 log M
TFISDYSIAMDKIHQQDFVNWLLAK(C16 diacid)K-NH2 (N-terminus assumed; SMILES CC[C@H](C)[C@H](NC(=O)[C@H](CO)NC(=O)[C@H](Cc1ccc(O)cc1)NC(=O)[C@H](CC(=O)O)NC(=O)[C@H](CO)NC(=O)[C@@H](NC(=O)[C@H](Cc1ccccc1)NC(=O)[C@@H](N)[C@@H](C)O)[C@@H](C)CC)C(=O)N[C@@H](C)C(=O)N[C@@H](CCSC)C(=O)N[C@@H](CC(=O)O)C(=O)N[C@@H](CCCCN)C(=O)N[C@H](C(=O)N[C@@H](Cc1c[nH]cn1)C(=O)N[C@@H](CCC(N)=O)C(=O)N[C@@H](CCC(N)=O)C(=O)N[C@@H](CC(=O)O)C(=O)N[C@@H](Cc1ccccc1)C(=O)N[C@H](C(=O)N[C@@H](CC(N)=O)C(=O)N[C@@H](Cc1c[nH]c2ccccc12)C(=O)N[C@@H](CC(C)C)C(=O)N[C@@H](CC(C)C)C(=O)N[C@@H](C)C(=O)N[C@@H](CCCCNC(=O)CCCCCCCCCCCCCCC(=O)O)C(=O)N[C@@H](CCCCN)C(N)=O)C(C)C)[C@@H](C)CC) [AT189 [hGIP(5-30)NH2[Q29K]-C16diacid/29]],–,–,–,–,–,–,12,79,-7.1,575,-6.2,182,-6.7,118,-6.9 log M and -6.93 log M,3.2,79,-7 log M and -7.1 log M
